Assay results taken from US12583913B2, “Antibody specific to Staphylococcus aureus, therapeutic method and detection method using same” (priority 2019, dated 2026).

Key:
[1] = tested on: GMA-2105; assay: Solid phase competitive inhibition ELISA with variant staphylocoagulase peptides; assay type: binding; conditions: peptide incubated with GMA-2105 in solution overnight at 4 degrees C
Text: There are reported strain specific sequence differences at residue positions 8 and 9 of staphylocoagulase (SEQ ID. No.: 2). […] Wantabe, et al., Genetic Diversity of Staphylocoagulase Genes (coa): Insight into the evolution of variable chromosomal virulence factors in Staphylococcus aureus. PLoS ONE 2009; 4(5): 1-11, incorporated herein by reference in its entirety. […] 9 (“Mutated Peptide Ala 8”), position 9 of SEQ ID NO. 9 (“Mutated Peptide Ala 9”), and position 8 and 9 of SEQ ID NO.: 9 (“Mutated Peptide Ala 8 & 9”) (see FIG. 13). We measured the binding of each synthetic peptide (Mutated Peptide Ala 8, Mutated Peptide Ala 9, and Mutated Peptide Ala 8 & 9) to GMA-2105 in solution.
We tested binding of Mutated Peptide Ala 8, Mutated Peptide Ala 9, and Mutated Peptide Ala 8 & 9 to GMA-2105 in a solid phase competitive inhibition assay. GMA-2105 was incubated with increasing concentrations of each of Mutated Peptide Ala 8, Mutated Peptide Ala 9, and Mutated Peptide Ala 8 & 9 (referred to hereafter as “GMA-2105—Mutated Peptide samples”) in solution overnight at 4 degrees C. The incubation was followed by transfer of the GMA-2105—Mutated Peptide samples to wells coated with the non-mutated peptide, […] (SEQ ID. No.: 9) and blocked with 0.1% BSA PBS. After a 30-minute incubation, wells were washed with PBS containing 0.05% TWEEN 20, followed by addition of goat anti-mouse secondary antibody conjugated to horseradish peroxidase. Substrate ortho-phenylenediamine conversion to product was measured at 490 nm using a spectrophotometer. The negative control as was a purified irrelevant synthetic peptide.

[2] = molecular target: T1, staphylocoagulase peptide SC(1-10) […] (SEQ ID NO: 9) (Staphylococcus aureus, UniProt P17855); assay: Solid-phase ELISA on staphylocoagulase peptide; assay type: binding, S. aureus
T1 construct: made in house; host or cells: chemical synthesis
Experimental: Two additional 50 μg injections (peptide-KLH conjugate in incomplete Freunds adjuvant) were given on days 61 and 111. A serum sample from each mouse was collected on Day 122 and the antibody titer measured by solid-phase Enzyme Linked Immunosorbant Assay (ELISA) using the staphylocoagulase and/or vWbp peptide conjugated to ovalbumin coated on 96-well ELISA plates at 2 ug/ml. Uncoated areas of the wells were blocked with albumin from bovine serum (BSA). The wells were then incubated with dilutions of the mouse serum to test whether the serum contained antibodies to the staphylocoagulase and/or vWbp peptide. Bound antibodies were detected with anti-mouse IgG secondary antibody conjugated to horseradish peroxidase. The plates were then incubated with o-phenylenediamine (OPD) substrate which undergoes a color change in the presence of HRP the intensity of which can be measured using absorption at 490 nm wavelength in a microplate reader. […]
Purified chimeric GMA-2105 and murine GMA-2105 antibody were tested against staphylocoagulase peptide […] […] Antibody-antigen complex was detected using a goat anti-mouse secondary antibody conjugated to horseradish peroxidase or goat anti-human secondary antibody conjugated to horseradish peroxidase. Substrate ortho-phenylene diamine conversion to product was measured at 490 nm using a spectrophotometer

[3] = tested on: staphylocoagulase; assay: Western blot detection of staphylocoagulase in cultured bacteria supernatants; assay type: binding; conditions: supernatants of S. aureus strains COL and MW2 (MRSA)
Text: Lanes A, B, and C contain concentrated (10×) supernatants from identically cultured bacteria. Lane A: S. saprophyticus (coagulase negative bacterium control); Lane B: S. aureus strain COL (MRSA); Lane C: S. aureus strain MW2 (MRSA); Lane D: media blank; Lane E: staphylocoagulase peptide conjugated to ovalbumin (SEQ ID NO.: 9).

[4] = molecular target: SC(1-246)●prothrombin^3Q (Staphylococcus aureus, UniProt P17855); assay: Inhibition of prothrombin^3Q activation by SC(1-246), S2238 hydrolysis; assay type: biochemical, S. aureus; conditions: read-out: affinity of inhibition of prothrombin^3Q activation by SC(1-246); prothrombin 1 nM, SC(1-246) 5.6 nM and 28 nM
[5] = molecular target: T2, BODIPY-labeled staphylocoagulase SC (S7C) (1-325) (Staphylococcus aureus, UniProt P17855, S33C); assay: Equilibrium binding of BODIPY-labeled staphylocoagulase, fluorescence titration in solution; design: species or system S. aureus
T2 construct: BODIPY fluorophore (chemical label)
Experimental: In solution, the antibody bound Ser 7 to Cys mutant of SC(1-325). Binding studies were done using the BODIPY-labeled staphylocoagulase SC (S7C) (1-325) (SEQ ID NO.: 2, positions 1-325 with Cys at position 7). The change of fluorescence upon antibody binding is measured as a function of the unlabeled ligand concentration and fitting the data to the quadratic binding equation gives the dissociation constant (KD), and the stoichiometry (n). Panizzi, et al., Fibrinogen substrate recognition by staphylocoagulase-(pro)thrombin complexes, J. Biol. Chem. 2006; 281:118-95.
Direct binding of BODIPY-SC(S7C) at 27 nM (●) and 130 nM (∘) probe titrated with GMA-2105 caused fluorescence increase, whereas unlabeled SC(1-246) (triangles) displaced BODIPY-SC(S7C) labeled staphylocoagulase from binding the antibody. Simultaneous fit of all datasets provide the Kd for the unmodified competitor to the antibody.
Concentrations were: BODIPY-staphylocoagulase (1-325) at 27 nM (●) and 130 nM (∘) titrated with GMA-2105 and unlabeled staphylocoagulase (1-246)(residues 1-246 of SEQ ID No. 2).
In FIG. 29, BODIPY®-labeled staphylocoagulase fragment (1-325) at 27 nM (●) and 130 nM (∘) titrated with chimeric GMA-2105 in solution in the presence of unlabeled staphylocoagulase fragment (1-246) (▴).

Row | Molecule | inhibition of GMA-2105 binding to wells coated with […] [1] | binding to staphylocoagulase peptide in ELISA [2] | further results
1 | Mutated Peptide Ala 8 & 9: synthetic peptide with alanine substitutions at positions 8 and 9 of SEQ ID NO. 9 (IVTKDYSAAS) | inhibited binding of antibody | – | –
2 | Mutated Peptide Ala 8: synthetic peptide with alanine substitution at position 8 of SEQ ID NO. 9 (IVTKDYSAES) | inhibited binding of antibody | – | –
3 | Mutated Peptide Ala 9: synthetic peptide with alanine substitution at position 9 of SEQ ID NO. 9 (IVTKDYSKAS) | inhibited binding of antibody | – | –
4 | GMA-2105 F(ab): fragment antigen-binding fragment of GMA-2105 (antibody, V domains shown) VH: EVKLEESGGGLVQPGGSMKLSCAASGFTFSDAWMDWVRQSPEKGLEWVAEIRTKANNHATYYAESVKGRFTISRDDSKSSVYLQMNSLRAEDTGIYYCTNVYYGNNDVKDYWGQGTSVTVSPAS VL: DIVMTQSQKFMSTSVGDRVSVTCKASQNVDIYVAWYQQKPGQSPKALIYSASYRFSGVPDRFTGSGSGTDFTLSISNVQSEDLAEYFCQQYNNYPYTFGGGTKLEIKRADAAPTVSIFPPSSEGRI | – | capable of binding | binding of staphylocoagulase in cultured bacteria, Western blot [3]: bind staphylocoagulase
5 | GMA-2105: inhibitory mouse anti-staphylocoagulase monoclonal antibody raised against peptide […]; VH SEQ ID NO 6, VL SEQ ID NO 8 (protein) chain 1: EVKLEESGGGLVQPGGSMKLSCAASGFTFSDAWMDWVRQSPEKGLEWVAEIRTKANNHATYYAESVKGRFTISRDDSKSSVYLQMNSLRAEDTGIYYCTNVYYGNNDVKDYWGQGTSVTVSPAS chain 2: DIVMTQSQKFMSTSVGDRVSVTCKASQNVDIYVAWYQQKPGQSPKALIYSASYRFSGVPDRFTGSGSGTDFTLSISNVQSEDLAEYFCQQYNNYPYTFGGGTKLEIKRADAAPTVSIFPPSSEGRI | – | – | Kd [4]: 0.9 nM
6 | chimeric GMA-2105 (antibody, V domains shown) VH: EVKLEESGGGLVQPGGSMKLSCAASGFTFSDAWMDWVRQSPEKGLEWVAEIRTKANNHATYYAESVKGRFTISRDDSKSSVYLQMNSLRAEDTGIYYCTNVYYGNNDVKDYWGQGTSVTVSPAS VL: DIVMTQSQKFMSTSVGDRVSVTCKASQNVDIYVAWYQQKPGQSPKALIYSASYRFSGVPDRFTGSGSGTDFTLSISNVQSEDLAEYFCQQYNNYPYTFGGGTKLEIKRADAAPTVSIFPPSSEGRI | – | binding | binding characteristics compared with murine GMA-2105 ([5]; FIG. 30): essentially identical; stoichiometry ([5]; chimeric antibody): 2 mol staphylocoagulase/mol chimeric antibody
